US20080193465A1 (US Dept. of Health and Human Services, published 2008)

Key:
[1] = biological target: T1, long IGF-II (IGF-II precursor) (human, UniProt P01344 25-180); assay: ELISA, 50 ng long (precursor) IGF-II immobilized, OD405
T1 construct: Expressed in E. coli as His-tagged long IGF-II; also called long His6-IGF-II; His-tagged long IGF-II; not shown: His6 tag from the E. coli expression vector (pRSET)

mature IGF-II = biological target: T2, mature IGF-II (human, UniProt P01344 25-91); assay: ELISA, 50 ng mature IGF-II immobilized, OD405
T2 construct: also called mature form of IGF-II
Protocol: Binding of the antibodies was measured by ELISA with 50 ng of either mature or precursor IGF-II immobilized on plates.

[2] = biological target: T1, long IGF-II (IGF-II precursor); assay: Biacore SPR, Fab on long IGF-II
Protocol: (§1) The binding of the Fabs was measured by using ELISA and Biacore surface plasmon resonance technology. […] Interactions between various Fabs and IGF-II were analyzed by surface plasmon resonance technology using a BIACORE 1000 instrument (Biacore, Pharmacia, Piscataway, N.J.). IGF-II was covalently immobilized onto a sensor chip (CM5) using carbodiimide coupling chemistry. A control reference surface was prepared for nonspecific binding and refractive index changes. For analysis of the kinetics of interactions, varying concentrations of Fabs were injected at flow rate of 30 μl/min using running buffer containing 150 mM NaCl, 3 mM EDTA, and 0.005% P-20 (pH 7.4). The association and dissociation phase data were fitted simultaneously to a 1:1 Langumir global model by using the nonlinear data analysis program BIAevaluation 3.2. All the experiments were performed at 25° C.
(§2) Biacore analysis was used to examine their binding affinities in more detail.

IGF-I = biological target: T3, IGF-I (UniProt P05019 49-118); assay: ELISA, antigens immobilized on the plate, single Fab concentration not shown, OD405
T3 construct: also called insulin-like growth factor I

[3] = biological target: T1, long IGF-II (IGF-II precursor); assay: Biacore 1000 SPR, IGF-II immobilized on CM5 chip, Fab injected, 1:1 Langmuir fit, 25° C.
Protocol: as §1, §2

[4] = biological target: T1, long IGF-II (IGF-II precursor); assay: ELISA, Fab on immobilized long IGF-II
BSA = biological target: T4, BSA (Bos taurus, UniProt P02769); assay: ELISA, antigens immobilized on the plate, single Fab concentration not shown, OD405
T4 construct: also called bovine serum albumin

[5] = biological target: T1, long IGF-II (IGF-II precursor); assay: ELISA, long IGF-II immobilized at 50 ng/well, bound Fab detected with anti-FLAG-HRP, OD405

T4 sequence (P02769 25-607 limits assumed): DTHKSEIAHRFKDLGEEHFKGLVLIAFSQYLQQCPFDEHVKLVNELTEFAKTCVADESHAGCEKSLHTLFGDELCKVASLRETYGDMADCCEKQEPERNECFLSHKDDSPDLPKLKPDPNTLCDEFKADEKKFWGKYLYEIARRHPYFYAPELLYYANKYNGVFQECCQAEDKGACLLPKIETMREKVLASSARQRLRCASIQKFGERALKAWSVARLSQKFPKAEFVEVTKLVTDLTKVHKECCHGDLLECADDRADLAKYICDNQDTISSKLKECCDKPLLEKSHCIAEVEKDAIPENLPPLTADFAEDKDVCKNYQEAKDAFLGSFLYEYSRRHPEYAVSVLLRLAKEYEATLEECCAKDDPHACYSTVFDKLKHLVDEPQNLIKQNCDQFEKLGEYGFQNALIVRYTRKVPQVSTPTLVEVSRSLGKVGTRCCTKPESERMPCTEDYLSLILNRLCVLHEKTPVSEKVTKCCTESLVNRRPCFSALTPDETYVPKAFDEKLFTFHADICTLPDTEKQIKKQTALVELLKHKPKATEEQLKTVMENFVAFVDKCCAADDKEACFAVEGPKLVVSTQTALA

| EC50 (read off the curve) [1] [nM] | EC50 (read off the curve) (mature IGF-II) [nM] | Ka [2] [M⁻¹] | Kd [2] [nM] | koff [2] [s⁻¹] | kon [2] [M⁻¹ s⁻¹] | binding result (IGF-I) | Kd [3] [nM] | koff [3] [s⁻¹] | kon [3] [M⁻¹ s⁻¹] | EC50 [4] [nM] | binding result (BSA) | EC50 (read off the curve) [5] [nM] | Binder |
| --- | --- | --- | --- | --- | --- | --- | --- | --- | --- | --- | --- | --- | --- |
| ~0.4 | ~0.5 | – | – | – | – | – | – | – | – | – | – | – | IgG1 m610 (antibody, V domains shown, Whole IgG made from the Fab in 293 Free Style cells; also called IgG m610; IgG M610; not shown: rest of the IgG1 heavy chain constant region supplied by vector pDR12) VH: QVQLVQSGAEVKKPGASVKVSCKASGYTFTSYYMHWVRQAPGQGLEWMGIINPSGGSTSYAQKFQGRVTMTRDTSTSTVYMELSRLRSDDTAVYYCARDVQWLAYGMDVWGQGTTVTVSS VL: not shown |
| – | – | 1.09e+09 | 0.918 | 0.000262 | 286000 | no binding | 0.9 | 0.00026 | 290000 | ~4 | – | – | Fab m610 (Fab, V domains shown, also called clone M610) VH: QVQLVQSGAEVKKPGASVKVSCKASGYTFTSYYMHWVRQAPGQGLEWMGIINPSGGSTSYAQKFQGRVTMTRDTSTSTVYMELSRLRSDDTAVYYCARDVQWLAYGMDVWGQGTTVTVSS VL: not shown |
| – | ~0.4 | – | – | – | – | – | – | – | – | – | – | – | IgG1 m606 (antibody, V domains shown, Whole IgG made from the Fab in 293 Free Style cells; also called IgG m606; m606 IgG; not shown: rest of the IgG1 heavy chain constant region supplied by vector pDR12) VH: QVQLVESGAEVKKPGASVKVSCKASGYTFTSYYMHWVRQAPGQGLEWMGIINPSGGSTSYAQKFQGRVTMTRDTSTSTVYMELSSLRSEDTAVYYCARDRSIAAMGWFDHWGQGTLVTVSS VL: DIQMTQSPSSVSASVGDRVTITCRASQGISSWLVWYQQKPGKAPKLLIYAASRLQSGVPSRFSGSGSGTLFTLIINNLQPEDFATYYCQQSNSVPLTFGGGTKVEIKR |
| – | – | 1.41e+09 | 0.711 | – | 351000 | no binding | 0.7 | 0.00025 | 350000 | ~4 | no binding | ~6 | Fab m606 (Fab, V domains shown, also called clone M606) VH: QVQLVESGAEVKKPGASVKVSCKASGYTFTSYYMHWVRQAPGQGLEWMGIINPSGGSTSYAQKFQGRVTMTRDTSTSTVYMELSSLRSEDTAVYYCARDRSIAAMGWFDHWGQGTLVTVSS VL: DIQMTQSPSSVSASVGDRVTITCRASQGISSWLVWYQQKPGKAPKLLIYAASRLQSGVPSRFSGSGSGTLFTLIINNLQPEDFATYYCQQSNSVPLTFGGGTKVEIKR |
| – | – | – | – | – | – | no binding | – | – | – | ~4 | – | – | Fab m616 (Fab, V domains shown, Soluble Fab from E. coli periplasm; also called clone M616) VH: SQVQVLVKPSQTLSLTCAISGDSVSSNSAAWNWIRQSPSRGLEWLGRTYYRSKWYNDYAVSVKSRITINPDTSKNQFSLQLNSVTPEDTAVYYCAREKGIGRGITGTTIPYNWFDPWGQGTLVTVSS VL: SSYEITQPPSVSVTPGQTARITCSGDALPKHFAYWYQQKPGQAPVLIIYKDTERPSGIPERFSGSNSGNTATLTISRVEAGDEADYYCQVWDSSSGWVFGGGTKLTVQG |
